According to PMC11848413, “Bacterial polysaccharide lyase family 33: Specificity from an evolutionarily conserved binding tunnel” (Proceedings of the National Academy of Sciences of the …, 2025):
Values belong to the molecule of their own block, whether it stands above or below them.

Key:
[1] = target: BT4410 (BtPL33^HA), PL33_1 hyaluronidase from Bacteroides thetaiotaomicron VPI-5482 (Bacteroides thetaiotaomicron VPI-5482); assay: SEC-MALS + other: SAXS; SEC-coupled light scattering and SAXS of the purified enzyme in solution, oligomeric state; conditions not shown (SI Appendix)
[2] = target: the molecule itself; assay: as above

stoichiometry N [1]: 2
Molecule: BT4410 (BtPL33^HA), PL33_1 hyaluronidase from Bacteroides thetaiotaomicron VPI-5482 (enzyme)

B1: HMPREF1181_01744 (BsPL33^Heparosan), PL33_1 heparosanase from Bacteroides stercoris CC31F (enzyme)
chain: TERHLLEQTVSYEELGNVLRYRQSWVDYPAYTDRKSWKEKTAPEMRELIIRNGERALKHEWKPDLASDYLAFKRTGEIRTGRANHKALQALTLAELVEGQGRFMDAIIDGIWFLCETSWIHSAHLGFQKDRSGLPDRNEPTIELVVADIGAQMAWTYYFLKDEFDKVSPLINERIIEEVNRNLINPYFARDDYWWMGFGGQQVNNWNPWINYNVLQALMLIEKDPERVRQGVWKLMKSTDFFFSMYHEDGACDEGPTYWSGASGYALKFLDLLAKVTGNKVNIFNAPLLRNMAQYIYRVHIGGNYFVNFADSAPKVSPSPGILYRYGELTGDPAMMKFASFMAQQNQSFKDGVNGYFASALDELFMYKDIIGHPQGEPLTGTYWFKDTQICVARDTEGKSDGFFFAAKGGNNQESHNHNDVGSCILYYNALPVLIDAGVGTYTRQTFGPERYTIWTMQSDYHNLPLINGTPQKNGREFAAHSQQYKATAKTVSYQVDIAHAYPQEANVKSWIRNYTLHRKKDFTITDKWKLSACNEPSVLNLMTCCEVEIDRNKNITLTGEAGRFRVEYDKKLLSPATDTVELTDPKLIHSWNRKKLTRIRFTIVSQQISGESKLVIRKAQYHKTLND
stoichiometry N [2]: 2

B2: BcellWH2_04512 (BcPL33^HA), PL33_1 hyaluronidase from Bacteroides cellulosilyticus WH2 (enzyme)
chain: YTERNLLQKAAGSEEQLKEALVMNQKWVPYPAYNDRAGWNELLGTNKESLIRAGEKMLNYEWKVIRATDYLEYERSGERNIMQNPYEANRKAINALMLAELAEGKGRFIDQLINGAFYSCEMTSWVLSAHLVRQSTKRSLPDYREQVIDLGSGNFGSMLSWVYYFFHDSFDKIDPVISQRLRHTLQERILDPYMNNDREWWMAFQWKPGMIINNWNPWCNSNVLQCYLLLENDRDRLAKAVWRSMQSVDKFINFVKADGACEEGPSYWGHAAGKMYDYLQILSDGTDGKVSLFKEPMIRRMGEYISRTYVGNGWVVNFADASAKGGGDAPLIYRYGRAVGSEEMMQFAAYLLDGKRPSVPLGNDTFRSLQSILWNGELEKTTAAHTIPACTWYPETEFCYLTNKSGWFLATKGGFNNESHNHNDVGTFSLYVNTIPVLIDAGVGTYTRQTFSSERYTIWTMQSNYHNLPMINGVPQSFGQNYKATDVVCQPKKRFFSANIATAYPKEAEVNSWTRAYSLGDKQLTITDNFSLKSAKESNQVNFLTWGKVDISVPGKVTIDVQGQKVTLEYPGEFTATVETINLPDTRLSNVWGTEIYRIALKDKDARLTGKYKFVIK
notes: BcellWH2_04512, polysaccharide lyase family 33 subfamily 1 hyaluronidase of Bacteroides cellulosilyticus WH2; 68% identical to BtPL33^HA; Cloned in pET28a with either an N- or a C-terminal His6 tag; source: E. coli BL21 (DE3) or TUNER, purified (Talon cobalt IMAC, S200 Superdex SEC)
stoichiometry N [2]: 2
